The Kd is the constant that tells how readily two partners part at equilibrium.

Changes are numbered by the printed parent chain. Where two headings read alike, the source gives them in different places.

The text below walks through data of US20190016812A1 (AbbVie / Abbott, published 2019).

Test [1] deals with T1, hTNFSF9-His (monomeric human TNFSF9 extracellular domain with 9x-Histidine tag) (human, UniProt P41273 50-254).
T1 construct: also called hTNFSF9-His protein; monomeric hTNFSF9-His antigen
T1 sequence (P41273 other isoform, or with tags, fused parts or gaps): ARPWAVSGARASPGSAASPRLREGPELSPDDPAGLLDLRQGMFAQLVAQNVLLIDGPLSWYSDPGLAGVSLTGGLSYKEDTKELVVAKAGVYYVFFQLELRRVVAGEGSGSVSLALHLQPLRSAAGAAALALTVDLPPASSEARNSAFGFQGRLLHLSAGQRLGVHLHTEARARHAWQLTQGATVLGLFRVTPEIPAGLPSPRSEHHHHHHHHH
The experiment in a line: SPR (Biacore). Background: SPR reads the build-up and loss of mass on a sensor chip optically.

The target in test [2] is T2, cynomolgus TNFSF9 (cTNFSF9) protein, soluble recombinant (cynomolgus).
T2 construct: extracellular domain; also called cynomolgus TNFSF9 protein
Put plainly: SPR (Biacore).

Test [3] deals with T3, human TNFSF9 (hTNFSF9), full length, overexpressed on HEK293T cells (human, UniProt P41273 1-254). Put plainly: cell-based or functional assay.
Test [4] concerns the target T4, cynomolgus TNFSF9 (cTNFSF9), full length, overexpressed on HEK293T cells (cynomolgus). Put plainly: cell-based or functional assay.
In test [5] the target is T5, human TNFSF9 (R&D Systems; #2295-4L-025/CF) (human, UniProt P41273 71-254, limits assumed).
T5 construct: also called TNFSF9 (ligand); TNFSF9 ligand
T5 sequence (P41273 71-254 limits assumed): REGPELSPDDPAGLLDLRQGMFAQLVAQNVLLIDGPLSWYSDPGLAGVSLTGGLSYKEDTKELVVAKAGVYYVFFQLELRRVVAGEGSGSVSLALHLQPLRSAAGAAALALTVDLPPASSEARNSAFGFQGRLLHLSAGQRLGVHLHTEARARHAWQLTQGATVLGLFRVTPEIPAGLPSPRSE
The experiment in a line: MSD ELISA: TNFSF9 + 1 ug/mL antibody, binding to coated TNFRSF9.

In test [6] the target is T5, human TNFSF9 (R&D Systems; …). Described as above. This is another data set of the same source.
Test [7] deals with T1, hTNFSF9-His (monomeric human TNFSF9 …). The experiment in a line: SPR (Biacore). The source holds these as a separate data set.
Test [8] addresses T2, cynomolgus TNFSF9 (cTNFSF9) protein, …. Put plainly: SPR (Biacore). This is another data set of the same source.
The target in test [9] is T3, human TNFSF9 (hTNFSF9), full length, …. The experiment in a line: cell-based or functional assay. The source holds these as a separate data set.
Test [10] has as its target T4, cynomolgus TNFSF9 (cTNFSF9), full …. The experiment in a line: cell-based or functional assay. This is another data set of the same source.

B1: SC113.61 (antibody, V domains shown)
VH: EVQLVESGGDLVKPGGSLKLSCAASGFTFSNYGMSWVRQTPDKRLEWVATISNGGISTYYPDSVKGRFTISRDNAKNTLYLQMNSLKSEDTAMYYCVRPGRGYFDYWGQGTTLTVSS
VL: DIVMTQAAPSVPVTPGESVSISCRSNKSLLHSDGNTYLYWFLQRPGQSPQLLIYRMSNLASGVPDRFSGSGSGTAFTLRISRVEAEDVGVYYCMQHLEYPWTFGGGTKLEIK
modifications: MSD SULFO-TAG NHS Ester label on amines (sites not given)
notes: Murine hybridoma antibody, sulfo-tagged for use as detection antibody; The label may sit on either chain; also called SC113.61 detection antibody
B1: the Kd was determined as 6 nM in test [1] and 11 nM in test [2]. The “% live cells, Fab-saporin killing, 250 pM antibody” value (“% live cells, Fab-saporin killing” for short) in [3] worked out at 23%; in test [4] it was 29%. Besides, the “% inhibition of ligand receptor interaction” value (from here on “% inhibition”) in test [5] came to 48%.

B2: SC113.70 (antibody, mouse IgG2b, V domains shown)
VH: DVQLQESGPDLVKPSQSLSLTCTVTGYSITSGYTWHWIRQFPGNKLEWMGYIIYSGGTNYNPSLKSRISITRDTSKNQFFLQLNSVTPEDTATYYCASLLRPLDYWGQGTTLTVSS
VL: B1 VL with N26S, D33N, N35D, Y37F, W101F, G105A, I111L
notes: mouse IgG2b
For the molecule B2, the Kd was found to be 11 nM in [1] and 81 nM in test [2]. Further, the “% live cells, Fab-saporin killing” value in [3] was 95.1%; in test [4] it was 101%. Further, in test [6], the “% inhibition” value came to 46%.

B3: SC113.36 (antibody, mouse IgG1, V domains shown)
VH: QVQLKESGPDLVAPSQSLSITCTVSGFSLTSYGVHWVRQPPGKGLEWLGVIWAGGFTNYNSALMSRLSISKDNSKSQVFLKMSSLQTDDTAMYYCVREKDYRYSHYFDYWGQGTTLTVSS
VL: DIVMSQSPSSLAVSVGEKVTLSCKSSLSLLYSSNQENYLAWYQQKPGQSPKLLIYWASTRESGVPDRFTGSGSGTDFTLTISSVKAEDLAVYYCQQYYSYPRTFGGGTKLEIK
notes: mouse IgG1
As to B3, the figures for the Kd in [7] and in test [8] were 3 nM and 12 nM, respectively. The “% live cells, Fab-saporin killing” value in [9] was 17.8%; in test [10], 102%. In [6], the “% inhibition” value worked out at 23%.

B4: SC113.51 (antibody, mouse IgG2a, V domains shown)
VH: B3 VH with T21I, P40S, F56L, S83N, H105Y
VL: B3 VL
notes: mouse IgG2a
Regarding B4, the Kd in test [1] came out at 3 nM; in test [2] it was 28 nM. For the same molecule, the entries for the “% live cells, Fab-saporin killing” value in test [3] and in [4] were 15.5% and 108%, respectively. Besides, the “% inhibition” value in [5] was determined as 99%.

B5: SC113.201 (antibody, V domains shown)
VH: QVQLKQSGPSLVQPSQSLSITCTVSGFSLTNYGVHWVRQSPGKGLEWLGVIWRGGGTDSNAAFMSRLTITKDNSKSQVFFKMSSLQADDTAIYYCAKNTRYDARGYYAMDYWGQGTSVTVSS
VL: not shown
With B5, the “% inhibition” value in test [6] is -66%.

B6: SC113.153 (antibody, V domains shown)
VH: QVQLKQSGPGLVQPSQSLSITCTVSGFSLTSYGVHWVRQSPGKGLEWLGVIWSGGSTDDNAAFISRLSISKDNSKSQVFFKMNSLQADDTAIYYCARNYYYDGRYYAMDYWGQGTSVTVSS
VL: DIVLTQSPASLAVSLGQRATISCRASESVEYYGTSLMQWYQQKPGQPPKLLIYVASNVESGVPVRFSGSGSGTDFSLNIHPVEEDDIAMYFCQQSRKVPWTFGGGTKLEIK
notes: Murine hybridoma antibody
B6: the “% inhibition” value in test [6] is -84%.

B7: SC113.148 (antibody, V domains shown)
VH: B6 VH with L11P, L67M, S70T, F80L, I92K, D102E, A107V, T118I
VL: B6 VL with A9V, V54A, V64A
For B7, the “% inhibition” value in test [6] was -63%.

B8: huSC113.57 (antibody, V domains shown)
VH: QVTLKESGPVLVKPTETLTLTCTVSGFSLSTYGVHWIRQPPGKALEWLAVIWSGGTTDDNAAFISRVTISKDNSKSQVVLTMTNMDPVDTATYYCARNSYYGNLHYYTMDYWGQGTTVTVSS
VL: EIVLTQSPATLSLSPGERATLSCRASESVDSYGISFLNWYQQKPGQAPRLLIYAASNQGSGIPARFSGSGSGTDFTLTISSLEPEDFAVYYCQQSKEVPWTFGGGTKVEIK
notes: also called hSC113.57 (humanized SC113.57)
In the case of B8, the “% inhibition” value in test [6] is -38%.

B9: SC113.44 (antibody, mouse IgG1, V domains shown)
VH: QVQLQQSGPELVKPGTSVRISCKASGYTFTSYYIHWVKQRPGQGLEWIGWIYPRDVDTKYNETFKGKATLTADKSSSTAYIQLNSLTSEDSAVYFCARELTGTVFDYWGQGTTLTVSS
VL: QIVLSQSPAILSASPGEKVTMTCRASSSVTYMHWYQRKPGSSPKPWIYATSTLASGVPARFSGTGSGTSYSLTISRVEAEDAATYFCQQWSSNPLTFGAGTKLELK
notes: mouse IgG1
As to B9, the Kd in test [7] came out at 9 nM; in test [8], 13 nM. The figures for the “% live cells, Fab-saporin killing” value in [9] and in test [10] were 10.8% and 33.9%, respectively. Also, in [5], the “% inhibition” value came out at 48%.

B10: SC113.121 (antibody, V domains shown)
VH: EVQLQQSGAELVKPGASVNLSCTASGFNIKDYYMHWMKQRPEQGLEWIGRIDPENGETRYAPKFQDKATITADTSSNTAYLQLRSLTSEDTAIYYCGRLDFYFDFWGQGTTLTVSS
VL: B9 VL with T30S, R37Q, T52N, T64S, F86Y, L95P, A99S, L105I
As to B10, in test [5], the “% inhibition” value was determined as 98%.

B11: SC113.167 (antibody, V domains shown)
VH: B10 VH with N19K, M37V, E46Y, N55A, K63N, D66G, G97A, F105S
VL: QIVLSQSPAILSASPGEKVTMTCRASSSVSYMHWYQQKPGSSPKPWIYATSNLASGVPGRFSGSGSGTSYSLTISRVEAEDTATYYCQQWFTNPPTFGSGTKLEIK
For the molecule B11, the “% inhibition” value in test [5] was 89%.

B12: SC113.150 (antibody, V domains shown)
VH: B10 VH with N19K, M34L, A61G, D66G, T74A, F105Y
VL: B11 VL with K18R, S30N, M32I, G59A, V77M, T82A, F91S, T92S, E104A
Turning to B12, in [5], the “% inhibition” value came to 98%.

B13: SC113.35 (antibody, mouse IgG2b, V domains shown)
VH: DVQLQESGPDLVKPSQSLSLTCTVTGYSITSGYGWHWIRQFPGNKLEWMGYIDYSGNNNYNPSLKSRISITRDTSKNQLFLQLNSVTAEDTATYFCARIYYDAMDYWGQGTSVTVSS
VL: DIVMTQSHKFMSTSVGERVSITCKASQDVGGAVAWYQQKPGQSPKLLIYWASTRHTGVPDRFTGSGSGTDFTLTISNVQSEDLADYFCQQYSSYPLTFGAGTKLDLK
notes: mouse IgG2b
For the molecule B13, the values for the Kd in test [7] and in [8] were 4 nM and 10 nM, respectively. Further, the “% live cells, Fab-saporin killing” value came to 28.5% in test [9] and 69.6% in [10]. For the same molecule, the “% inhibition” value in [5] was 73%.

B14: SC113.57 (antibody, V domains shown)
VH: QVQLKQSGPGLVPPSQSLSISCTVSGFSLTTYGVHWVRQSPGKGLEWLGVIWSGGTTDDNAAFISRVSITKDNSKSQVFFKMNSLQADDTAIYYCAKNSYYGNLHYYTMDYWGQGTSVTVSS
VL: not shown
notes: Murine hybridoma antibody with kappa light chain; also called SC113.57 capture antibody
Consider B14, for which the Kd in [1] was determined as 5 nM; in [2], 4 nM. In addition, the results for the “% live cells, Fab-saporin killing” value in test [3] and in [4] were 11.6% and 9.3%, respectively. Moreover, in test [6], the “% inhibition” value is -35%.

B15: SC113.219 (antibody, V domains shown)
VH: QVQLKQSGAELVRPGASVKLSCRASGYTFTDFYINWVKQRPGQGLEWIARIYPGSGNTHYNENFKGKATLTAEKSSSTAYMQLSSLTSEDSAVYFCAREVWDAMDHWGQGTSVTVSS
VL: SIVMTQSPKSMSISVGERVTLSCKASENVGTYVSWYQQKPEQSPKLLIYGASNRYTGVPDRFTGSGSSAEFTLTISSVQAEDLADYYCGQSSSFPIFTFGTGAKLEIK
On to B15, for which the “% inhibition” value in [6] was -37%.

B16: SC113.46 (antibody, V domains shown)
VH: QIQLVQSGPELKKPGETVKISCKASGYSFTNYGMNWVKQTPRKGLKWVGWINTYTGETTYADDFKGRFAFSLETSASTAYLQINNLKNEDMATYFCARIYGYGWFAYWGQGTLVTVSA
VL: DIQMTQSPSSLSASLGERVSLTCRASQEISGYLSWLQQKPDGTIKRLIYAASTLDSGAPKRFSGSRSGSDYSLIISSLESEDFADYYCLQYSSYPYTFGGGTKLEIK
notes: mouse antibody, isotype N/A
On to B16, for which the values for the Kd in [7] and in test [8] were 4 nM and 16 nM, respectively. The “% live cells, Fab-saporin killing” value in test [9] is 28.3%; in test [10], 31.3%.

B17: SC113.133 (antibody, V domains shown)
VH: QVQLQQSGAELVRPGSSVKISCKASGYAFSSSWINWVKQRPGQGLEWIGQIYPGDGDTNYNGKFKGKATLTADKSSNTAYLQLNSLTSEDSAVYFCARTPIFAYWGQGTLVTVSA
VL: B16 VL with S34T, T53I, A58V, I74T, S92A, Y96W
In the case of B17, in test [5], the “% inhibition” value came to 66%.
